Relative Activity (beta-galactosidase of LGIPR3a reporter cells expressing rat GIPR; Fc mixed with 0.1 nM hGIP; bar as high as that of GIP alone, 0.098, so no neutralization), binding result and Kd data for ten molecules are collected here from US20250304675A1 (MHS CARE INNOVATION, published 2025).

Residue numbers refer to the chain shown, from its start.

The target in experiment [1] is human gastric inhibitory polypeptide (glucose-dependent insulinotropic polypeptide) (human).
The target in experiment [2] is T1, gastric inhibitory polypeptide (GIP), species not stated at the place of the result (Homo sapiens (Human), UniProt P09681 52-93).
T1 peptide: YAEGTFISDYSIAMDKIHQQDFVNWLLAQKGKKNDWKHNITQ
As to the kind of experiment: hybridoma screening; assay not further stated.

Experiment [3] addresses T2, human gastric inhibitory polypeptide (glucose-dependent insulinotropic polypeptide) (human).
T2 construct: also called human GIP; hGIP
T2 peptide: T1 peptide
Description: direct binding ELISA, CHO supernate on coated human GIP; 3rd of 10 in the printed order. As for the experimental part:
(§1) CHO cells co-transfected with the mammalian expression vectors were grown in culture and the supernate collected. The supernate was evaluated for the presence of GIP-binding mAbs by direct binding ELISA Human GIP was fixed to the bottom of the wells on 96-well plates. Serial dilutions of the supernate were added to different wells of the 96-well plate. After a one hour incubation, the wells were washed twice with PBS before a secondary antibody that specifically binds to human IgG was added to each well. The antibody that specifically binds to human IgG was conjugated with the enzyme horse radish peroxidase (HRP). After incubation for one hour, the wells were washed with PBS before the HRP substrate was added. If HRP was present in a well, the substrate was converted to a colored compound. The amount of color intensity was read using a spectrophotometer. The amount of color produced was proportional to the amount of HRP-antibody conjugate remaining in each well. The amount of color produced was also proportional to the amount of mAb bound to hGIP in each well.

Experiment [4] addresses T2, human gastric inhibitory polypeptide …. As to the kind of experiment: direct binding ELISA, CHO supernate on coated human GIP; 6th of 10 in the printed order. As for the experimental part:
as §1

The target is the same in experiment [5]. Description: direct binding ELISA, CHO supernate on coated human GIP; 10th of 10 in the printed order. As for the experimental part: as §1
In experiment [6] the target is T1, gastric inhibitory polypeptide (GIP), …. Description: modified Schild's assay plot, reporter cell line expressing GIP receptors (derived from a functional assay).
The target in experiment [7] is T2, human gastric inhibitory polypeptide …. Description: direct binding ELISA, CHO supernate on coated human GIP; 9th of 10 in the printed order. As for the experimental part:
as §1

The target is the same in experiment [8]. Description: direct binding ELISA, CHO supernate on coated human GIP; 4th of 10 in the printed order. As for the experimental part:
as §1

Experiment [9] has the same target. Description: direct binding ELISA, CHO supernate on coated human GIP; 7th of 10 in the printed order. As for the experimental part: as §1

On to Fc, for which, in experiment [1], the Relative Activity (beta-galactosidase of LGIPR3a reporter cells expressing rat GIPR; Fc mixed with 0.1 nM hGIP; bar as high as that of GIP alone, 0.098, so no neutralization) came to 0.105.

B1: 14B9 antibody (antibody, V domains shown)
VH: QVQLQESGAALVRSGASVKLSCTASGFNIKDYYFHWVKQRPDQGLEWIGWIDPENGDTEYAPNFQVKATMTADTYSNTAYLHLSSLTSEDTAVYYCNSYGNNYFDYWGQGTTVTVSS
VL: DIQLTQSPAIMAASLGQKVTMTCSASSSVSSSYLHWYQQKSGASPKSLIHRTSNLASGVPARFSGSGSGTSYSLTISSVEAEDDATYYCLQWSGFPFTFGSGTKLEIKR
notes: Comparison antibody
Take B1: the binding result in experiment [2] was “no binding”.

B2: LC3/HC2 humanized antibody (antibody, V domains shown)
VH: QVQLVQSGAEVKKPGATVKISCKASGFNIRDYYLHWVQQAPGKGLEWMGWIDPENGDTEYAPKFQGRVTITADTSTNTAYMELSSLRSEDTAVYYCNVYGIYFMDYWGQGTMVTVSS
VL: DIQMTQSPGTLSLSPGERATLSCRASSSISSNSLHWYQQKPGQAPRLLIYRTSNRATGIPARFSGSGSGTDYTLTISSLEPEDFAVYYCQQGSSFPRMLTFGGGTKVEIKR
notes: Tested as CHO supernate
B2: the binding result in experiment [3] was “binds”.

B3: LC3/HC1 humanized antibody (antibody, V domains shown)
VH: B2 VH with A24V, N77D
VL: B2 VL
notes: Tested as CHO supernate
Consider B3, for which the binding result in experiment [4] is “binds”.

B4: LC3/HC3 humanized antibody (antibody, V domains shown)
VH: QVQLQESGAEVKKPGASVKVSCKASGFNIRDYYLHWVRQAPGQGLEWMGWIDPENGDTEYAPKFQGRVTTTADTSISTAYMELSRLRSDDTAVYYCNVYGIYFMDYWGQGTLVTVSS
VL: B2 VL
notes: Tested as CHO supernate
With B4, the binding result in experiment [5] was “binds”.

B5: 10g10 monoclonal antibody (original mouse mAb) (antibody, V domains shown)
VH: QVQLQESGAELVRSGASVKLSCTASGFNIRDYYLHWIKQRPEQGLEWIGWIDPENGDTEYAPKFQDKATVTADTSSNTAYLQLNSLTSEDTAVYYCNVYGIYFMDYWGQGTTVTVSS
VL: DIQLTQSPSTMAASPGEKITITCSASSSISSNSLHWYQQKPGFSPKLLIYRTSNLASGVPGRFSGSGSGTSYSLTIGTMETEDVATYYCQQGSSFPRMLTFGTGTKLEIKR
notes: Mouse hybridoma antibody; also called 10g10 mAb; 10g10 GIP mAb
B5 displayed a Kd in [6] of 3200 nM.

B6: LC1/HC3 humanized antibody (antibody, V domains shown)
VH: B4 VH
VL: DIQMTQSPSSVSASVGDRVTITCRASSSISSNSLHWYQQKPGKAPKLLIYRTSSLQSGVPSRFSGSGSGTDYTLTISSLQPEDFATYYCQQGSSFPRMLTFGQGTKLEIKR
notes: Tested as CHO supernate
With B6, the binding result in experiment [7] is reported as “binds”.

B7: LC2/HC2 humanized antibody (antibody, V domains shown)
VH: B2 VH
VL: B6 VL with M4L, S54N
notes: CHO supernate in the ELISA; Protein A purified in the neutralization assay; also called mAbH; GIP mAbH
Consider B7, for which binding in [6] was characterised by a dissociation constant (Kd) of 2200 nM.

B8: LC1/HC2 humanized antibody (antibody, V domains shown)
VH: B2 VH
VL: B6 VL
notes: Tested as CHO supernate
Consider B8, for which the binding result in [8] is listed as “binds”.

B9: LC1/HC1 humanized antibody (antibody, V domains shown)
VH: B2 VH with A24V, N77D
VL: B6 VL
notes: Tested as CHO supernate
Turning to B9, the binding result in [9] is “binds”.
